Molecular target: T1, His-tagged soluble human ROR1 (shROR1-His) (human, UniProt Q01973 30-406)
T1 construct: also called ROR1 protein; immobilized ROR1; not shown: His-Tag
Assay: SPR (BIACORE), trivalent binding molecule 6.25 to 100 nM passed over immobilized shROR1-His
Description: The binding kinetics of each of the ROR1×CD3×CD8 trivalent binding molecules to ROR1 was investigated using BIACORE® analysis in which each trivalent binding molecule (6.25 to 100 nM) was passed over immobilized shROR1-His essentially as described above.

T1 sequence (Q01973 30-406): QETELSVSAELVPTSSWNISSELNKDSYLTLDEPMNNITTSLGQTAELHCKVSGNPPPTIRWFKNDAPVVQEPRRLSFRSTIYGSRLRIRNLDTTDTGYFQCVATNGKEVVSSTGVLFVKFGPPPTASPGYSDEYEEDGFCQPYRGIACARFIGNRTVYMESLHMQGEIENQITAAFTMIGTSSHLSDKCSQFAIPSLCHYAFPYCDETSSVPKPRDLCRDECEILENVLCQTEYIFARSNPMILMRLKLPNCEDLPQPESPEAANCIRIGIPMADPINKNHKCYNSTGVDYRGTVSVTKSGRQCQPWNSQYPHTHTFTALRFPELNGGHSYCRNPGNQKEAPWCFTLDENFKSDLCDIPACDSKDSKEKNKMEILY

Kd | Binder
0.19 nM | TRIDENT-C (other, anti-ROR1-VL(14) and VH(8)) chain 1: QLVLTQSPSASASLGSSVKLTCTLSSGHKTDTIDWYQQQPGKAPRYLMKLEGSGSYNKGSGVPDRFSGSSSGADWYLTISSLQSEDEADYYCGTDYPGNYLFGGGTQLTVLGGGGSGGGGEVQLVESGGGLVQPGGSLRLSCAASGFTFSTYAMNWVRQAPGKGLEWVGRIRSKYNNYATYYADSVKGRFTISRDDSKNSLYLQMNSLKTEDTAVYYCVRHGNFGNSYVSWFAYWGQGTLVTVSSASTKGEVAACEKEVAALEKEVAALEKEVAALEKGGGDKTHTCPPCPAPEAAGGPSVFLFPPKPKDTLMISRTPEVTCVVVDVSHEDPEVKFNWYVDGVEVHNAKTKPREEQYNSTYRVVSVLTVLHQDWLNGKEYKCKVSNKALPAPIEKTISKAKGQPREPQVYTLPPSREEMTKNQVSLWCLVKGFYPSDIAVEWESNGQPENNYKTTPPVLDSDGSFFLYSKLTVDKSRWQQGNVFSCSVMHEALHNHYTQKSLSLSPGK chain 2: QAVVTQEPSLTVSPGGTVTLTCRSSTGAVTTSNYANWVQQKPGQAPRGLIGGTNKRAPWTPARFSGSLLGGKAALTITGAQAEDEADYYCALWYSNLWVFGGGTKLTVLGGGGSGGGGQEQLVESGGGLVQPGGSLRLSCAASGFTFSDYYMSWIRQAPGKGLEWVATIYPSSGKTYYADSAKGRLTISSDNAKDSLYLQMNSLRAEDTAVYYCTRDSYADDAALFDIWGQGTTVTVSSASTKGKVAACKEKVAALKEKVAALKEKVAALKE chain 3: DIQMTQSPSSLSASVGDRVTITCKGSQDINNYLAWYQQKPGKAPKLLIYNTDILHTGVPSRFSGSGSGTDFTFTISSLQPEDIATYYCYQYNNGYTFGCGTKVEIKGGGGSGGGGSGGGGSQVQLVESGGGVVQPGRSLRLSCAASGFTFSDFGMNWVRQAPGKCLEWVALIYYDGSNKFYADSVKGRFTISRDNSKNTLYLQMNSLRAEDTAVYYCAKPHYDGYYHFFDSWGQGTLVTVSSVEPKSADKTHTCPPCPAPEAAGGPSVFLFPPKPKDTLMISRTPEVTCVVVDVSHEDPEVKFNWYVDGVEVHNAKTKPREEQYNSTYRVVSVLTVLHQDWLNGKEYKCKVSNKALPAPIEKTISKAKGQPREPQVYTLPPSREEMTKNQVSLSCAVKGFYPSDIAVEWESNGQPENNYKTTPPVLDSDGSFFLVSKLTVDKSRWQQGNVFSCSVMHEALHNRYTQKSLSLSPGK
0.26 nM | TRIDENT-D (other) chain 1: QLVLTQSPSASASLGSSVKLTCTLSSGHKTDTIDWYQQQPGKAPRYLMKLEGSGSYNKGSGVPDRFSGSSSGADWYLTISSLQSEDEADYYCGTDYPGNYLFGGGTQLTVLGGGGSGGGGEVQLVESGGGLVQPGGSLRLSCAASGFTFSTYAMNWVRQAPGKGLEWVGRIRSKYNNYATYYADSVKGRFTISRDDSKNSLYLQMNSLKTEDTAVYYCVRHGNFGNSYVSWFAYWGQGTLVTVSSASTKGEVAACEKEVAALEKEVAALEKEVAALEKGGGDKTHTCPPCPAPEAAGGPSVFLFPPKPKDTLMISRTPEVTCVVVDVSHEDPEVKFNWYVDGVEVHNAKTKPREEQYNSTYRVVSVLTVLHQDWLNGKEYKCKVSNKALPAPIEKTISKAKGQPREPQVYTLPPSREEMTKNQVSLWCLVKGFYPSDIAVEWESNGQPENNYKTTPPVLDSDGSFFLYSKLTVDKSRWQQGNVFSCSVMHEALHNHYTQKSLSLSPGK chain 2: QAVVTQEPSLTVSPGGTVTLTCRSSTGAVTTSNYANWVQQKPGQAPRGLIGGTNKRAPWTPARFSGSLLGGKAALTITGAQAEDEADYYCALWYSNLWVFGGGTKLTVLGGGGSGGGGQEQLVESGGGLVQPGGSLRLSCAASGFTFSDYYMSWIRQAPGKGLEWVATIYPSSGKTYYADSAKGRLTISSDNAKDSLYLQMNSLRAEDTAVYYCTRDSYADDAALFDIWGQGTTVTVSSASTKGKVAACKEKVAALKEKVAALKEKVAALKE heavy: not shown light: not shown

From patent publication US20170233472A1 (MacroGenics, published 2017)
